Measured values reported in patent US20100272706A1, “ANTIVIRALS” (priority 2007, published 2010).

B1: AID (protein, UniProt Q9GZX7 1-198, looked up)
Single-stranded DNA cytosine …: MDSLLMNRRKFLYQFKNVRWAKGRRETYLCYVVKRRDSATSFSLDFGYLRNKNGCHVELLFLRYISDWDLDPGRCYRVTWFTSWSPCYDCARHVADFLRGNPNLSLRIFTARLYFCEDRKAEPEGLRRLHRAGVQIAIMTFKDYFYCWNTFVENHERTFKAWEGLHENSVRLSRQLRRILLPLYEVDDLRDAFRTLGL
B2: dominant negative dynamin (K44A) (protein, UniProt Q05193 1-864, looked up, variant K44A)
Dynamin-1: MGNRGMEDLIPLVNRLQDAFSAIGQNADLDLPQIAVVGGQSAGASSVLENFVGRDFLPRGSGIVTRRPLVLQLVNATTEYAEFLHCKGKKFTDFEEVRLEIEAETDRVTGTNKGISPVPINLRVYSPHVLNLTLVDLPGMTKVPVGDQPPDIEFQIRDMLMQFVTKENCLILAVSPANSDLANSDALKVAKEVDPQGQRTIGVITKLDLMDEGTDARDVLENKLLPLRRGYIGVVNRSQKDIDGKKDITAALAAERKFFLSHPSYRHLADRMGTPYLQKVLNQQLTNHIRDTLPGLRNKLQSQLLSIEKEVEEYKNFRPDDPARKTKALLQMVQQFAVDFEKRIEGSGDQIDTYELSGGARINRIFHERFPFELVKMEFDEKELRREISYAIKNIHGIRTGLFTPDMAFETIVKKQVKKIREPCLKCVDMVISELISTVRQCTKKLQQYPRLREEMERIVTTHIREREGRTKEQVMLLIDIELAYMNTNHEDFIGFANAQQRSNQMNKKKTSGNQDEILVIRKGWLTINNIGIMKGGSKEYWFVLTAENLSWYKDDEEKEKKYMLSVDNLKLRDVEKGFMSSKHIFALFNTEQRNVYKDYRQLELACETQEEVDSWKASFLRAGVYPERVGDKEKASETEENGSDSFMHSMDPQLERQVETIRNLVDSYMAIVNKTVRDLMPKTIMHLMINNTKEFIFSELLANLYSCGDQNTLMEESAEQAQRRDEMLRMYHALKEALSIIGDINTTTVSTPMPPPVDDSWLQVQSVPAGRRSPTSSPTPQRRAPAVPPARPGSRGPAPGPPPAGSALGGAPPVPSRPGASPDPFGPPPQVPSRPNRAPPGVPSRSGQASPSRPESPRPPFDL

System: vaccinia virus mature virions (EGFP-MV)
Format: cell-based

Molecule	inhibition of infection by expression of construct [%]	effect of expressed construct on infection
B1	80	
B2		no impact
